Measurements published in patent publication US20260297205 (published 2026).
Where a chain is given by its changes, count along the chain named.

B1: GH19 (antibody, V domains shown)
VH: EVQLVESGGGLVQPGGSLRLSCAASGFNFSYSYIHWVRQAPGKGLEWVASIYSYSGYTSYADSVKGRFTISADTSKNTAYLQMNSLRAEDTAVYYCARYKWWAMDYWGQGTLVTV
VL: DIQMTQSPSSLSASVGDRVTITCRASQSVSSAVAWYQQKPGKAPKLLIYSASSLYSGVPSRFSGSRSGTDFTLTISSLQPEDFATYYCQQSGSWPITFGQGTKVEIKR
B2: GH10 (antibody, V domains shown)
VH: EVQLVESGGGLVQPGGSLRLSCAASGFNFYSSSIHWVRQAPGKGLEWVAYISPYSGYTSYADSVKGRFTISADTSKNTAYLQMNSLRAEDTAVYYCARIAYKWYMPYYYGMDYWGQGTLVTV
VL: B1 VL with G92L, W94S, P95L, I96V
B3: GH9 (antibody, V domains shown)
VH: B1 VH with F29V, S30Y, Y31S, Y99H, K100S, W101S
VL: B1 VL with G92S, S93F, W94V, I96L
B4: GH42 (antibody, V domains shown)
VH: EVQLVESGGGLVQPGGSLRLSCAASGFNFSSSYIHWVRQAPGKGLEWVASISSSSGSTSYADSVKGRFTISADTSKNTAYLQMNSLRAEDTAVYYCARSPWYVYWYFGSALDYWGQGTLVTV
VL: B1 VL with G92S, W94S, P95L
B5: GH25 (antibody, V domains shown)
VH: EVQLVESGGGLVQPGGSLRLSCAASGFNFSYYSIHWVRQAPGKGLEWVASISSYYGYTSYADSVKGRFTISADTSKNTAYLQMNSLRAEDTAVYYCARYFLGMDYWGQGTLVTV
VL: B1 VL with S91Y, G92R, S93Y, W94P
B6: GH18 (antibody, V domains shown)
VH: EVQLVESGGGLVQPGGSLRLSCAASGFNFYSSYIHWVRQAPGKGLEWVASIYSYSGYTSYADSVKGRFTISADTSKNTAYLQMNSLRAEDTAVYYCARYKEPFGMDYWGQGTLVTV
VL: B1 VL with G92N, S93Y, W94M, I96L
B7: GH23 (antibody, V domains shown)
VH: B1 VH with F29V, Y31S, Y99F, K100W, W101V
VL: B1 VL with G92S, S93Y, W94I, I96L
B8: GH41 (antibody, V domains shown)
VH: EVQLVESGGGLVQPGGSLRLSCAASGFNFSSSSIHWVRQAPGKGLEWVASISPYSGYTSYADSVKGRFTISADTSKNTAYLQMNSLRAEDTAVYYCARGYGGWYWWYTFAFDYWGQGTLVTV
VL: DIQMTQSPSSLSASVGDRVTITCRASQSVSSAVAWYQQKPGKAPKLLIYSASSLYSGVPSRFSGSRSGTDFTLTISSLQPEDFATYYCQQSSSSELLTFGQGTKVEIKR

Each binder was assayed against human growth hormone (GH) (human, UniProt P01241) (assay: SPR, 20C).
Sequence of human growth hormone (GH) (P01241 27-217): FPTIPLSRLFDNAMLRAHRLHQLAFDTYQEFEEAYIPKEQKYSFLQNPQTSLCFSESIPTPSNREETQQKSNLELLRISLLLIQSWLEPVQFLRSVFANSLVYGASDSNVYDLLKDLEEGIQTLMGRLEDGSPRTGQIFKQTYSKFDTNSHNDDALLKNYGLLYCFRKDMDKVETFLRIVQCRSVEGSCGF

Kd | Binder
5.9 nM | B1
3.6 nM | B2
18 nM | B3
2.2 nM | B4
0.14 nM | B5
12.5 nM | B6
0.17 nM | B7
2.6 nM | B8
